Columns and labels:
Experiment in all cases: SPOT array
[1] = molecular target: T1, Abp1, P15891; settings: median of control spots 935
T1 sequence (P15891 535-592, looked up): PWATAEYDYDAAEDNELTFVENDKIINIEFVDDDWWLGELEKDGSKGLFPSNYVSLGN

[2] = molecular target: T2, Bbc1, P47068; settings: median of control spots 796
T2 sequence (P47068 1-78, looked up): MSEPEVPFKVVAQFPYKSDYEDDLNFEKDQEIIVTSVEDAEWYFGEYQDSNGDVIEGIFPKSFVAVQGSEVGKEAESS

[3] = molecular target: Bem1-1, P29366; settings: median of control spots 4282
[4] = molecular target: Bem1-2, P29366; settings: median of control spots 4347
[5] = molecular target: T3, Boi1, P38041; settings: median of control spots 1162
T3 sequence (P38041 1-86, looked up): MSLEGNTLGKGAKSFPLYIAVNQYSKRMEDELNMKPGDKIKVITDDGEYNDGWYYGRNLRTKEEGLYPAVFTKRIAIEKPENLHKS

[6] = molecular target: T4, Boi2, P39969; settings: median of control spots 1161
T4 sequence (P39969 32-116, looked up): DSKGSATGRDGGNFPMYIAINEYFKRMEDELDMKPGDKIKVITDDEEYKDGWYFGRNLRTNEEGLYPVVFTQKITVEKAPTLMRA

[7] = molecular target: T5, Bud14, P27637; settings: median of control spots 956
T5 sequence (P27637 247-328, looked up): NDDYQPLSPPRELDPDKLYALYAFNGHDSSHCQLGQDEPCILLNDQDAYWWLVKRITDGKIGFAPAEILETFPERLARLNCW

[8] = molecular target: T6, Bzz1-1, P38822; settings: median of control spots 4446
T6 sequence (P38822 478-572, looked up): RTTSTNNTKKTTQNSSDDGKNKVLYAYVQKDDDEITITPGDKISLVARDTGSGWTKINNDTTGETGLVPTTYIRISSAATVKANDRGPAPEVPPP

[9] = molecular target: T7, Bzz1-2, P38822; settings: median of control spots 4538
T7 sequence (P38822 568-633, looked up): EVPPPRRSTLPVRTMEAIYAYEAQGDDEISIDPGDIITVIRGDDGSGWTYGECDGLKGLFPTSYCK

[10] = molecular target: T8, Cdc25, P04821; settings: median of control spots 969
T8 sequence (P04821 50-136, looked up): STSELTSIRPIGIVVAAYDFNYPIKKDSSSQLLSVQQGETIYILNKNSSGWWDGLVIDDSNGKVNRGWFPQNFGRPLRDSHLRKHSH

[11] = molecular target: T9, Cyk3, Q07533; settings: median of control spots 1451
T9 sequence (Q07533 1-83, looked up): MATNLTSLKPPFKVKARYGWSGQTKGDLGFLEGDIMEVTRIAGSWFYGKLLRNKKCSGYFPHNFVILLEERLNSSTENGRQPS

[12] = molecular target: T10, Fus1, P11710; settings: median of control spots 1200
T10 sequence (P11710 432-512, looked up): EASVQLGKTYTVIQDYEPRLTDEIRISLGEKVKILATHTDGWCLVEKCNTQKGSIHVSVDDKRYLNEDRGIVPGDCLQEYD

[13] = molecular target: GST; settings: median of control spots 978
[14] = molecular target: T11, Hof1, Q05080; settings: median of control spots 4086
T11 sequence (Q05080 590-669, looked up): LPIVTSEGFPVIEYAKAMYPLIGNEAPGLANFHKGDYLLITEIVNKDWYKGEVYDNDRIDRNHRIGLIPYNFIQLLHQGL

[15] = molecular target: T12, Hse1, P38753; settings: median of control spots 1727
T12 sequence (P38753 208-285, looked up): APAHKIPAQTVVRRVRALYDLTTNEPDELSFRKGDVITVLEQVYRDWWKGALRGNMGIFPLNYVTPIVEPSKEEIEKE

[16] = molecular target: T13, Lsb1, P53281; settings: median of control spots 388
T13 sequence (P53281 45-122, looked up): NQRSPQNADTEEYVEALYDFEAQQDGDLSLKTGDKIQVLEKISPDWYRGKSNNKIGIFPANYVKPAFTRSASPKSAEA

[17] = molecular target: T14, Lsb3, P43603; settings: median of control spots 406
T14 sequence (P43603 385-451, looked up): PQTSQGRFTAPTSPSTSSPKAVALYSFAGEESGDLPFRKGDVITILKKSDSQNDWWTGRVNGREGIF

[18] = molecular target: T15, Lsb4, P32793; settings: median of control spots 397
T15 sequence (P32793 402-468, looked up): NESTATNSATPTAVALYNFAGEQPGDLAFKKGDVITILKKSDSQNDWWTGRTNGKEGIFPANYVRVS

[19] = molecular target: Myo3, P36006; settings: median of control spots 468
[20] = molecular target: T16, Myo5, Q04439; settings: median of control spots 471
T16 sequence (Q04439 1072-1160, looked up): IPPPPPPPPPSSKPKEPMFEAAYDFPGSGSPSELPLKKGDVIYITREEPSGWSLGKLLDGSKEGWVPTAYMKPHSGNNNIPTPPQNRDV

[21] = molecular target: T17, Nbp2, Q12163; settings: median of control spots 357
T17 sequence (Q12163 103-180, looked up): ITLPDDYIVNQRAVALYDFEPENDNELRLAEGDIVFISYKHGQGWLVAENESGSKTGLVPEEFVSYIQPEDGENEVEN

[22] = molecular target: T18, Pex13, P80667; settings: median of control spots 1341
T18 sequence (P80667 295-386, looked up): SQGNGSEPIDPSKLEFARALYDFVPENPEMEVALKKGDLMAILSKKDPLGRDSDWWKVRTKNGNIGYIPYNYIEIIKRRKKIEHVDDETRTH

[23] = molecular target: T19, Pin3, Q06449; settings: median of control spots 2171
T19 sequence (Q06449 53-122, looked up): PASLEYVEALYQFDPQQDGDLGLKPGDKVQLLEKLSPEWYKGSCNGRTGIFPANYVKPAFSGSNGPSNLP

[24] = molecular target: Rvs167, P39743; settings: median of control spots 2707
[25] = molecular target: Sho1, P40073; settings: median of control spots 1148
[26] = molecular target: T20, Sla1-2, P32790; settings: median of control spots 712
T20 sequence (P32790 60-140, looked up): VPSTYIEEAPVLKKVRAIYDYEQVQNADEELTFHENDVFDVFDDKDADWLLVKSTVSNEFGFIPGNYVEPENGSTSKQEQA

[27] = molecular target: T21, Sla1-3, P32790; settings: median of control spots 5475
T21 sequence (P32790 344-424, looked up): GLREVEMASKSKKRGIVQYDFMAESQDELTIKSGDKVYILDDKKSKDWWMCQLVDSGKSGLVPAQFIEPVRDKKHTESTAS

Chain of Bem1-1, P29366 (P29366 55-141): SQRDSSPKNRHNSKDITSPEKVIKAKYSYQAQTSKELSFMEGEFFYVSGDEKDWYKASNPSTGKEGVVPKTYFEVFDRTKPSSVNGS
Chain of Bem1-2, P29366 (P29366 139-227): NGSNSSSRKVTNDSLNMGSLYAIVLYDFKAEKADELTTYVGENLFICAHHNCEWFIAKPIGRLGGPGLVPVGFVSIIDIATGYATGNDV
Chain of Sho1, P40073 (P40073 287-367): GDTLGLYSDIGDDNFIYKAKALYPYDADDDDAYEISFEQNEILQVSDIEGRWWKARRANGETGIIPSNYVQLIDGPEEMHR
Chain of Rvs167, P39743 (P39743 419-482): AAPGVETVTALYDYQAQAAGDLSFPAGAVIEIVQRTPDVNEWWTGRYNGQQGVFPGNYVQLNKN

SPOT intensity [1]: 0
SPOT intensity [2]: 0
SPOT intensity [3]: 0
SPOT intensity [4]: 0
SPOT intensity [5]: 0
SPOT intensity [6]: 0
SPOT intensity [7]: 2
SPOT intensity [8]: 5
SPOT intensity [9]: 1
SPOT intensity [10]: 4
SPOT intensity [11]: 0
SPOT intensity [12]: 0
SPOT intensity [13]: 0
SPOT intensity [14]: 1
SPOT intensity [15]: 0
SPOT intensity [16]: 0
SPOT intensity [17]: 0
SPOT intensity [18]: 0
SPOT intensity [19]: 0
SPOT intensity [20]: 0
SPOT intensity [21]: 0
SPOT intensity [22]: 0
SPOT intensity [23]: 0
SPOT intensity [24]: 0
SPOT intensity [25]: 0
SPOT intensity [26]: 0
SPOT intensity [27]: 0
Binder: QPWTDQFEKLEKEVS
